Measured values: patent US20240294594A1 (CYTUNE PHARMA, published 2024)
Changes are numbered by the printed parent chain. Numbers in names are those of the source.

How the values were obtained:
FcγRIIb = target: T1, FcγRIIb (UniProt P31994 46-217, limits assumed); assay: SPR (Biacore 8K), receptor captured via anti-His antibody
T1 construct: also called FcgRIIb
T1 sequence (looked up): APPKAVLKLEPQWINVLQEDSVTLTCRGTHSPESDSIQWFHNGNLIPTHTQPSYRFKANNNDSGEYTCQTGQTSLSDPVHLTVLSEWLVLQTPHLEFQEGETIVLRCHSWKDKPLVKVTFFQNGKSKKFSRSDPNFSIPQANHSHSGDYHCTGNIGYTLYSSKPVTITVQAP
Experimental: (§1) SPR experiments were performed on a Biacore 8K (Cytiva, Chicago, IL, USA), using CM5 sensor chips (Cytiva) with an immobilization using THE His tag antibodies (Genscript). FcγRIIIa V158, FcγRIIIa F158 or FcγRIIb protein were used for capture with a contact time of 30 sec at a flow rate of […] in a 1×HBS-EP+ running buffer. Association/dissociation rates were measured for each tested immunocytokine at a flow rate of 30 μl/min with concentration serial dilution in a suitable range with an association time/dissociation time of 300 s/300 s except for constructs with DLE and DE with and without afucosylation, where association/dissociation time of 120 s/1200 s was applied.

FcγRIIIa F158 [1] = target: T2, FcγRIIIa F158 (human, UniProt P08637 17-208, limits assumed); assay: as above
T2 construct: also called hFcγRIIIaF158; CD16a F158
Experimental: as §1

FcγRIIIa V158 [2] = target: T3, FcγRIIIa V158 (human, UniProt P08637 17-208, limits assumed); assay: as above
T3 construct: also called hFcγRIIIaV158; CD16a V158
Experimental: as §1

FcγRIIIa F158 [3] = target: T2, FcγRIIIa F158; assay: SPR (Biacore 8K), ratio of 1/Kd values
Experimental: as §1

FcγRIIIa V158 [4] = target: T3, FcγRIIIa V158; assay: SPR (Biacore 8K), ratio of 1/Kd values
Experimental: as §1

IL-2/IL-15Rβγ (on cells) [5] = target: T4, IL-2/IL-15Rβγ (on cells) (UniProt P14784 27-551; P31785 23-369, limits assumed); assay: cell-based or functional assay
T4 sequence (looked up) 1: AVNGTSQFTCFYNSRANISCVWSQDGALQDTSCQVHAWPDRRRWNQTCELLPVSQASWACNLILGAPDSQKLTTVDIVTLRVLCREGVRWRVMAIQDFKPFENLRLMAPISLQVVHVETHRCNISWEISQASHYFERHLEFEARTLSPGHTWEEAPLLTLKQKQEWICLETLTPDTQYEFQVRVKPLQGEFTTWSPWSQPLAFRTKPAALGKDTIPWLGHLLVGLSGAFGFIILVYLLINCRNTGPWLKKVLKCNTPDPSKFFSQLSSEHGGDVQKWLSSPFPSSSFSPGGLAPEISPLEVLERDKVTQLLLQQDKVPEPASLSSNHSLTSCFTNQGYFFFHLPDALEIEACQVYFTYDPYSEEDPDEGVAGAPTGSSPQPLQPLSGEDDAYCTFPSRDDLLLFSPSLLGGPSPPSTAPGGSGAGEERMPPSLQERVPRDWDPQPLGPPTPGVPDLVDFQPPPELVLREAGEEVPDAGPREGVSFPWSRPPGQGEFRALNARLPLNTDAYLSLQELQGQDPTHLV
T4 sequence (looked up) 2: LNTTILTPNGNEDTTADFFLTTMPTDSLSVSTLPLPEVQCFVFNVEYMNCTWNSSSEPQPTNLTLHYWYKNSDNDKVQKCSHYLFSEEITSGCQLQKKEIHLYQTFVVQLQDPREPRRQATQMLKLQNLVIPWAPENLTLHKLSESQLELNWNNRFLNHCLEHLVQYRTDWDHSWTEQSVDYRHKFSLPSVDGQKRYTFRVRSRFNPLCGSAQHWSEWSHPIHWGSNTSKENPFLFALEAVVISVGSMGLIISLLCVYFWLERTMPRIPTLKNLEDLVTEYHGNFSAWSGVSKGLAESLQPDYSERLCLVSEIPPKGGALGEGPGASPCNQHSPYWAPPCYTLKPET

IL-2/IL-15Rβγ (on cells) [6] = target: T4, IL-2/IL-15Rβγ (on cells); assay: cell-based or functional assay; remark: listed apart in the source
[7] = target: PD-1 (on PD-1 Effector Cells of the Promega PD-1/PD-L1 Blockade Bioassay) (UniProt Q15116 25-288, limits assumed); assay: cell-based or functional assay
PD-1 (on PD-1 Effector Cells of the Promega PD-1/PD-L1 Blockade Bioassay), sequence (Q15116 25-288 limits assumed): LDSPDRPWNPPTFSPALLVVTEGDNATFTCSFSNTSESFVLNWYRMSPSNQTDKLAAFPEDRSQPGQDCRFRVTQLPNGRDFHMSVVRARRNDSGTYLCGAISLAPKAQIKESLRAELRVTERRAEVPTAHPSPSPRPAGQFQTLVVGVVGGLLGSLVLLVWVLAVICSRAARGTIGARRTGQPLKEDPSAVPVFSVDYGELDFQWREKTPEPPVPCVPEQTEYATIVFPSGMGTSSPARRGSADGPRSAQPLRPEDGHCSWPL

T3 sequence (P08637 17-208 F176V limits assumed): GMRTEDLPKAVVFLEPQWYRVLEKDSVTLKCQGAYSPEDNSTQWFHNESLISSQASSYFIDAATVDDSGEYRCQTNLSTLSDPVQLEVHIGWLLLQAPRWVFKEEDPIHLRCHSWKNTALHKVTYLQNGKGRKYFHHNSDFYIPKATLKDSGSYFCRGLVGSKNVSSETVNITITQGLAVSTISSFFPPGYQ
T2 sequence (P08637 17-208 limits assumed): as the sequence (P08637 17-208 F176V limits assumed) above, with V160F counted along it

B1: hCl1a AAA-RLI DANA (other)
heavy 1: QVQLVQSGAEVKKPGASVKVSCKASGYTFTDYAMHWVRQAPGQRLEWMGWINTYTGKPTYAQKFQGRVTITRDTSASTAYMELSSLRSEDTAVYYCARAVFYGYTMDAWGQGTLVTVSSASTKGPSVFPLAPSSKSTSGGTAALGCLVKDYFPEPVTVSWNSGALTSGVHTFPAVLQSSGLYSLSSVVTVPSSSLGTQTYICNVNHKPSNTKVDKKVEPKSCDKTHTCPPCPAPELLGGPSVFLFPPKPKDTLMISRTPEVTCVVVDVSHEDPEVKFNWYVDGVEVHNAKTKPREEQYNATYRVVSVLTVLHQDWLNGKEYKCKVSNKALPAPIAATISKAKGQPREPQVYTLPPSRDELTKNQVSLWCLVKGFYPSDIAVEWESNGQPENNYKTTPPVLDSDGSFFLYSKLTVDKSRWQQGNVFSCSVMHEALHNHYTQKSLSLSPGITCPPPMSVEHADIWVKSYSLYSRERYICNSGFKRKAGTSSLTECVLNKATNVAHWTTPSLKCIRDPALVHQRPAPPSGGSGGGGSGGGSGGGGSGGNWVNVISDLKKIEDLIQSMHIDATLYTESDVHPSCKVTAMKCFLLELQVISLESGDASIHATVEALIILANNSLSSNAQVTESGCKECEELEEKNIKEFLQSFVHIVQMFINTS
heavy 2: QVQLVQSGAEVKKPGASVKVSCKASGYTFTDYAMHWVRQAPGQRLEWMGWINTYTGKPTYAQKFQGRVTITRDTSASTAYMELSSLRSEDTAVYYCARAVFYGYTMDAWGQGTLVTVSSASTKGPSVFPLAPSSKSTSGGTAALGCLVKDYFPEPVTVSWNSGALTSGVHTFPAVLQSSGLYSLSSVVTVPSSSLGTQTYICNVNHKPSNTKVDKKVEPKSCDKTHTCPPCPAPELLGGPSVFLFPPKPKDTLMISRTPEVTCVVVDVSHEDPEVKFNWYVDGVEVHNAKTKPREEQYNATYRVVSVLTVLHQDWLNGKEYKCKVSNKALPAPIAATISKAKGQPREPQVYTLPPSRDELTKNQVSLSCAVKGFYPSDIAVEWESNGQPENNYKTTPPVLDSDGSFFLVSKLTVDKSRWQQGNVFSCSVMHEALHNHYTQKSLSLSPG
light: DIQMTQSPSSLSASVGDRVTITCRASEDIYSNLAWYQQKPGKAPKLLIFSVKRLQDGVPSRFSGSGSGTDFTLTISSLQPEDFATYYCLQGSNFPLTFGQGTKVEIKRTVAAPSVFIFPPSDEQLKSGTASVVCLLNNFYPREAKVQWKVDNALQSGNSQESVTEQDSKDSTYSLSSTLTLSKADYEKHKVYACEVTHQGLSSPVTKSFNRGEC
notes: Immunocytokine; also called SOT202-AAA-DANA
FcγRIIb
  Kd: 24.6 µM
FcγRIIIa F158 [1]
  Kd: 0.101 µM
FcγRIIIa V158 [2]
  Kd: 0.0356 µM
FcγRIIIa F158 [3]
  A/I (F158), affinity towards FcγRIIIa over affinity towards FcγRIIb: 244 ratio
FcγRIIIa V158 [4]
  A/I (V158), affinity towards FcγRIIIa over affinity towards FcγRIIb: 691 ratio

B2: hCl1a AAA-RLI DANA afuc (other)
heavy 1: B1 heavy 1
heavy 2: B1 heavy 2
light: B1 light
modifications: afucosylated Fc N-glycan
FcγRIIb
  Kd: 17.5 µM
FcγRIIIa F158 [1]
  Kd: 0.0461 µM
FcγRIIIa V158 [2]
  Kd: 0.0173 µM
FcγRIIIa F158 [3]
  A/I (F158), affinity towards FcγRIIIa over affinity towards FcγRIIb: 380 ratio
FcγRIIIa V158 [4]
  A/I (V158), affinity towards FcγRIIIa over affinity towards FcγRIIb: 1010 ratio

B3: hCl1a DLE-RLI DANA afuc (other)
heavy 1: B1 heavy 1 with S241D, A300S, A332L, I334E, A335E, A336K
heavy 2: B1 heavy 2 with S241D, A300S, A332L, I334E, A335E, A336K
light: B1 light
modifications: afucosylated Fc N-glycan
notes: Afucosylated form of hCl1a DLE-RLI DANA
FcγRIIb
  Kd: 2.22 µM
FcγRIIIa F158 [1]
  Kd: 0.000237 µM
FcγRIIIa V158 [2]
  Kd: 0.000162 µM
FcγRIIIa F158 [3]
  A/I (F158), affinity towards FcγRIIIa over affinity towards FcγRIIb: 9370 ratio
FcγRIIIa V158 [4]
  A/I (V158), affinity towards FcγRIIIa over affinity towards FcγRIIb: 13700 ratio

B4: hCl1a DLE-RLI DANA (other)
heavy 1: B1 heavy 1 with S241D, A300S, A332L, I334E, A335E, A336K
heavy 2: B1 heavy 2 with S241D, A300S, A332L, I334E, A335E, A336K
light: B1 light
notes: Immunocytokine; also called SOT202-DLE-DANA
FcγRIIb
  Kd: 2.65 µM
FcγRIIIa F158 [1]
  Kd: 0.0116 µM
FcγRIIIa V158 [2]
  Kd: 0.00571 µM
FcγRIIIa F158 [3]
  A/I (F158), affinity towards FcγRIIIa over affinity towards FcγRIIb: 228 ratio
FcγRIIIa V158 [4]
  A/I (V158), affinity towards FcγRIIIa over affinity towards FcγRIIb: 464 ratio

B5: RLI2 mutein D30N/E64Q/N65D (NQD) of Table 13 (ligand)
chain: ITCPPPMSVEHADIWVKSYSLYSRERYICNSGFKRKAGTSSLTECVLNKATNVAHWTTPSLKCIRDPALVHQRPAPPSGGSGGGGSGGGSGGGGSGGNWVNVISDLKKIEDLIQSMHIDATLYTESNVHPSCKVTAMKCFLLELQVISLESGDASIHDTVQDLIILANNSLSSNGNVTESGCKECEELEEKNIKEFLQSFVHIVQMFINTS
IL-2/IL-15Rβγ (on cells) [5]
  Potency in vitro (kit225): -15700 x (fold against RLI2 wt)

B6: RLI DANAQD (ligand)
chain: B5 chain with N127D, D158A, Q161E, D162A, Q198D
IL-2/IL-15Rβγ (on cells) [6]
  EC50 kit225 cells [pM]: 106000 pM

B7: PEM LE/YTE-RLI NA x1 (other)
heavy 1: QVQLVQSGVEVKKPGASVKVSCKASGYTFTNYYMYWVRQAPGQGLEWMGGINPSNGGTNFNEKFKNRVTLTTDSSTTTAYMELKSLQFDDTAVYYCARRDYRFDMGFDYWGQGTTVTVSSASTKGPSVFPLAPCSRSTSESTAALGCLVKDYFPEPVTVSWNSGALTSGVHTFPAVLQSSGLYSLSSVVTVPSSSLGTKTYTCNVDHKPSNTKVDKRVESKYGPPCPPCPAPEFEGGPSVFLFPPKPKDTLYITREPEVTCVVVDVSQEDPEVQFNWYVDGVEVHNAKTKPREEQFNSTYRVVSVLTVLHQDWLNGKEYKCKVSNKGLPSSIEKTISKAKGQPREPQVYTLPPSQEEMTKNQVSLWCLVKGFYPSDIAVEWESNGQPENNYKTTPPVLDSDGSFFLYSRLTVDKSRWQEGNVFSCSVMHEALHNHYTQKSLSLSLGITCPPPMSVEHADIWVKSYSLYSRERYICNSGFKRKAGTSSLTECVLNKATNVAHWTTPSLKCIRDPALVHQRPAPPSGGSGGGGSGGGSGGGGSGGNWVNVISDLKKIEDLIQSMHIDATLYTESDVHPSCKVTAMKCFLLELQVISLESGDASIHDTVEALIILANNSLSSNAQVTESGCKECEELEEKNIKEFLQSFVHIVQMFINTS
heavy 2: QVQLVQSGVEVKKPGASVKVSCKASGYTFTNYYMYWVRQAPGQGLEWMGGINPSNGGTNFNEKFKNRVTLTTDSSTTTAYMELKSLQFDDTAVYYCARRDYRFDMGFDYWGQGTTVTVSSASTKGPSVFPLAPCSRSTSESTAALGCLVKDYFPEPVTVSWNSGALTSGVHTFPAVLQSSGLYSLSSVVTVPSSSLGTKTYTCNVDHKPSNTKVDKRVESKYGPPCPPCPAPEFEGGPSVFLFPPKPKDTLYITREPEVTCVVVDVSQEDPEVQFNWYVDGVEVHNAKTKPREEQFNSTYRVVSVLTVLHQDWLNGKEYKCKVSNKGLPSSIEKTISKAKGQPREPQVYTLPPSQEEMTKNQVSLSCAVKGFYPSDIAVEWESNGQPENNYKTTPPVLDSDGSFFLVSRLTVDKSRWQEGNVFSCSVMHEALHNHYTQKSLSLSLG
light: EIVLTQSPATLSLSPGERATLSCRASKGVSTSGYSYLHWYQQKPGQAPRLLIYLASYLESGVPARFSGSGSGTDFTLTISSLEPEDFAVYYCQHSRDLPLTFGGGTKVEIKRTVAAPSVFIFPPSDEQLKSGTASVVCLLNNFYPREAKVQWKVDNALQSGNSQESVTEQDSKDSTYSLSSTLTLSKADYEKHKVYACEVTHQGLSSPVTKSFNRGEC
[7]
  EC50 [pM], PD-1/PD-L1 Blockade Bioassay (Promega): 1440 pM
